What was measured:
Assay in all cases: ProImmune REVEAL binding assay
[1] = biological target: A*02:01 (Homo sapiens, UniProt P04439, D140Y/D185E/D98H/E176V/E277Q/G131W/G231S/I119V/I121R/I166T/I218V/L300P/L318F/N151K/N90K/P208A/P217A/Q86G/Q94H/R138H/R169H/T345S)
[2] = biological target: B*27:05 (Homo sapiens, UniProt P01889, D138H/D201E/E176V/E204Q/G107R/H137Y/K202T/N104T/N87E/Q56L/Q94K/R106L/R155S/R180L/S101D/S121N/S48T/Y140D/Y33H/Y91C)
[3] = biological target: A*11:01 (Homo sapiens, UniProt P04439, A114D/D185E/E176A/F33Y/L180Q/S129P/T187R)
[4] = biological target: T1, H-2Kb (Mus musculus, UniProt P01901)
T1 sequence (P01901 22-295 limits assumed): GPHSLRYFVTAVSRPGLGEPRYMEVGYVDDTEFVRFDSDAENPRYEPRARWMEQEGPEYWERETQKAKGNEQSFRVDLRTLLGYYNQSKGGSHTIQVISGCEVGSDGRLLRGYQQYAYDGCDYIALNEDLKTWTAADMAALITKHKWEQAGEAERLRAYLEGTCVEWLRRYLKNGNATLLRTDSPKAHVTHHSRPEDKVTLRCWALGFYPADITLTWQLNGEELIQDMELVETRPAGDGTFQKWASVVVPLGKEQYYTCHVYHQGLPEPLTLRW
T1 sequence (P01887 21-119 partner): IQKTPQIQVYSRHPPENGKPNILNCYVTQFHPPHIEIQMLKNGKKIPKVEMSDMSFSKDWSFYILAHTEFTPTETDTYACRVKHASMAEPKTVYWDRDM

[5] = biological target: A*24:02 (Homo sapiens, UniProt P04439, D101N/D140Y/D185E/E176V/E190D/F33S/G103R/G107R/I119L/I121M/I306V/K335N/L105A/L180Q/L300P/N151K/N90K/Q86E/Q94H/R106L/R138H/R89G/T104I/T345S/V100E/W191G/Y123F)
[6] = biological target: A*03:01 (Homo sapiens, UniProt P04439)
[7] = biological target: B*07:02 (Homo sapiens, UniProt P01889)
[8] = biological target: A*01:01 (Homo sapiens, UniProt P04439, A114D/A174V/A182V/D101N/D185E/E176A/E190D/L180R/Q94H/R68K/S129P/T187R/V100A/V91M/W191G)

With AISGDDCVV the “REVEAL® score at 0 h” value [1] was 91.1.

In the case of AMTDTTPFG, the “REVEAL® score at 0 h” value [1] is reported as 91.9.

In the case of ARGYISTRV, the “REVEAL® score at 0 h” value [2] is reported as 125.3.

With ATFTMRLLS the “REVEAL® score at 0 h” value [3] was 58.5 and the “REVEAL® score at 0 h” value [4] was 55.6.

CHATFTMRL was tested, and the “REVEAL® score at 0 h” value [4] was 60.3 and the “REVEAL® score at 0 h” value [5] was 75.9.

CVYNMMGKR was tested, and the “REVEAL® score at 0 h” value [3] was 113.2 and the “REVEAL® score at 0 h” value [6] was 81.6.

For FKLTYQNKV, the “REVEAL® score at 0 h” value [2] was 53.7.

With FKPGTSGSP the “REVEAL® score at 0 h” value [7] was 50.4 and the “REVEAL® score at 0 h” value [4] was 45.7.

GEAAAIFMT was tested, and the “REVEAL® score at 0 h” value [3] was 50.3, the “REVEAL® score at 0 h” value [5] was 58.9 and the “REVEAL® score at 0 h” value [1] was 74.3.

For GLYGNGVVT, the “REVEAL® score at 0 h” value [1] was 87.7.

In the case of GQQRVFKEK, the “REVEAL® score at 0 h” value [3] is reported as 85.5, the “REVEAL® score at 0 h” value [2] is reported as 95.4 and the “REVEAL® score at 0 h” value [1] is reported as 47.1. The “REVEAL® score at 0 h” value [6] was 59.6.

For GTYGLNTFT, the “REVEAL® score at 0 h” value [3] was 63.6.

For HATFTMRLL, the “REVEAL® score at 0 h” value [4] was 69.5.

HTMWHVTRG was tested, and the “REVEAL® score at 0 h” value [3] was 56.3.

In the case of HWTEAKMLL, the “REVEAL® score at 0 h” value [5] is reported as 103.2.

For IPERSWNSG, the “REVEAL® score at 0 h” value [7] was 45.2.

ISGDDCVVK was tested, and the “REVEAL® score at 0 h” value [3] was 88.7.

For IVDLMCHAT, the “REVEAL® score at 0 h” value [1] was 62.7.

With KLTYQNKVV the “REVEAL® score at 0 h” value [1] was 92.3.

In the case of KQWFLDLPL, the “REVEAL® Score” value [1] is reported as 86.0.

LAPTRVVAA was tested, and the “REVEAL® score at 0 h” value [4] was 102.5.

LGCGRGGWS was tested, and the “REVEAL® score at 0 h” value [5] was 74.8.

In the case of LLCDIGESS, the “REVEAL® score at 0 h” value [1] is reported as 93.9.

LMCHATFTM was tested, and the “REVEAL® score at 0 h” value [4] was 59.0, the “REVEAL® score at 0 h” value [2] was 98.2 and the “REVEAL® score at 0 h” value [5] was 99.5. The “REVEAL® score at 0 h” value [1] was 72.9.

With LMRRGDLPV the “REVEAL® score at 0 h” value [7] was 178.9 and the “REVEAL® score at 0 h” value [1] was 82.3.

With LMYFHRRDL the “REVEAL® score at 0 h” value [7] was 119.6, the “REVEAL® score at 0 h” value [4] was 54.9 and the “REVEAL® score at 0 h” value [1] was 97.8.

In the case of LSRNSTHEM, the “REVEAL® score at 0 h” value [7] is reported as 124.5 and the “REVEAL® score at 0 h” value [4] is reported as 51.1.

In the case of MAMTDTTPF, the “REVEAL® score at 0 h” value [7] is reported as 117.4 and the “REVEAL® score at 0 h” value [5] is reported as 51.3.

With MCHATFTMR the “REVEAL® score at 0 h” value [3] was 91.0 and the “REVEAL® score at 0 h” value [6] was 86.8.

For MGEAAAIFM, the “REVEAL® score at 0 h” value [1] was 50.6.

With MWHVTRGAV the “REVEAL® score at 0 h” value [1] was 62.7.

For NMMGKREKK, the “REVEAL® score at 0 h” value [3] was 77.9.

In the case of PERVILAGP, the “REVEAL® score at 0 h” value [7] is reported as 56.1.

PLSRNSTHE was tested, and the “REVEAL® score at 0 h” value [7] was 65.0.

QQRVFKEKV was tested, and the “REVEAL® score at 0 h” value [4] was 63.4.

RQWFFDLPL was tested, and the “REVEAL® Score” value [1] was 80.5.

With RRGDLPVWL the “REVEAL® score at 0 h” value [2] was 144.8.

With SRNSTHEMY the “REVEAL® score at 0 h” value [7] was 52.0.

TLLCDIGES was tested, and the “REVEAL® score at 0 h” value [1] was 63.9.

TMWHVTRGA was tested, and the “REVEAL® score at 0 h” value [1] was 112.0.

For TPFGQQRVF, the “REVEAL® score at 0 h” value [7] was 112.7.

TTDISEMGA was tested, and the “REVEAL® score at 0 h” value [8] was 68.4.

TVWFVPSIK was tested, and the “REVEAL® score at 0 h” value [3] was 92.2.

For VGTYGLNTF, the “REVEAL® score at 0 h” value [5] was 96.0.

With VVAAEMEEA the “REVEAL® score at 0 h” value [1] was 92.2.

With VYNMMGKRE the “REVEAL® score at 0 h” value [3] was 62.5.

WTEAKMLLD was tested, and the “REVEAL® score at 0 h” value [5] was 94.7.

YFHRRDLRL was tested, and the “REVEAL® score at 0 h” value [5] was 87.5.

For YGLNTFTNM, the “REVEAL® score at 0 h” value [4] was 75.4.

YNMMGKREK was tested, and the “REVEAL® score at 0 h” value [3] was 80.9.

From patent publication US20230020362A1, “INFECTIOUS DISEASE VACCINES” (priority 2015, published 2023)
